Test results reported in publication PMC9052748, “The Di-Iron Protein YtfE Is a Nitric Oxide-Generating Nitrite Reductase Involved in the Management of Nitrosative Stress” (Journal of the American Chemical Society, 2022).

B1: YtfE (Escherichia coli K-12) (protein)
chain: MAYRDQPLGELALSIPRASALFRKYDMDYCCGGKQTLARAAARKELDVEVIEAELAKLAEQPIEKDWRSAPLAEIIDHIIVRYHDRHREQLPELILQATKVERVHADKPSVPKGLTKYLTMLHEELSSHMMKEEQILFPMIKQGMGSQAMGPISVMESEHDEAGELLEVIKHTTNNVTPPPEACTTWKAMYNGINELIDDLMDHISLENNVLFPRALAGE
notes: C-terminal His tag (pGS2618, pET24a derivative), expressed in E. coli BL21 (DE3)-T1R, purified anaerobically; di-iron holo form, 26,154 Da, monomer
B2: YtfE (Escherichia coli K-12; C30A/C31A) (protein)
chain: MAYRDQPLGELALSIPRASALFRKYDMDYAAGGKQTLARAAARKELDVEVIEAELAKLAEQPIEKDWRSAPLAEIIDHIIVRYHDRHREQLPELILQATKVERVHADKPSVPKGLTKYLTMLHEELSSHMMKEEQILFPMIKQGMGSQAMGPISVMESEHDEAGELLEVIKHTTNNVTPPPEACTTWKAMYNGINELIDDLMDHISLENNVLFPRALAGE
notes: as for B1

Assays:
[1] = target: T1, YtfE (Escherichia coli, UniProt P69506); experiment: initial rates of DTT-mediated reduction of air-exposed YtfE (A340 nm), binding isotherm; format: biochemical; details: air-exposed (oxidized) YtfE ~90 μM; DTT 0 to 80 mM; reductant; apparent value from rates
T1 construct: C-terminal His tag (pGS2618, pET24a derivative), expressed in E. coli BL21 (DE3)-T1R, purified anaerobically; di-iron holo form, 26,154 Da, monomer
From the text: initial rates of DTT-mediated reduction of air-exposed YtfE (A340 nm), binding isotherm on YtfE | fitted using a simple binding isotherm, from which a Kd was obtained

[2] = substrate: O=NO; experiment: purified protein; format: biochemical, Escherichia coli; details: di-ferrous YtfE 10 μM, reductant dithionite-reduced methyl viologen 58 μM, pH 7.5, 100 mM Tris, anaerobic

| Molecule | Kd [1] | Km [2] | Vmax [2] | kcat [2] | kcat/Km [2] |
| --- | --- | --- | --- | --- | --- |
| OC(CS)C(O)CS (stereo not drawn) [DTT] | 7.3 mM |  |  |  |  |
| B1 |  | 252 (± 32) μM | 1.33 µmol/min/mg | 0.58 ± 0.0265 s⁻¹ | 2300 ± 105 M⁻¹ s⁻¹ |
| B2 |  | 288 (± 29) μM | 1.59 µmol/min/mg | 0.693 ± 0.0263 s⁻¹ | 2410 ± 91.7 M⁻¹ s⁻¹ |
